Each binder was assayed against SARS-CoV Spike protein (SARS-CoV, UniProt P59594 14-1190).

Row | Binder | bead binding signal (median fluorescence, fold over isotype control)
1 | antibody 372 (antibody, V domains shown) VH: QVQLVESGGGVVQPGRSLRLSCAASGFTFSSYAMHWVRQAPGKGLEWVAVISYDGSNKYYADSVKGRFTISRDNSKNTLYLQMNSLRAEDTAVYYCARDLGTSALLWFGELFLNYGMDVWGQGTTVTVSS VL: QSALTQPRSVSGSPGQSVTISCTGTSSDVGGYNYVSWYQQHPGKAPKLMIYDVSKRPSGVPDRFSGSKSGNTASLTISGLQAEDEADYYCCSYAGSPILVFGGGTKLTVL | 1.08 fold over isotype control
2 | antibody 343 (antibody, V domains shown) VH: QVQLVESGGDVVQPGTSLRLSCAASGFTFNNYGFHWVRQAPGKGLEWVALISSDGASTHYADSVKGRFTISRDSSVNTLYLQMNSLSLEDTAVYYCATGHCGTTCYYFDYWGQGTLVSVSS VL: DIQVTQSPSYLSASVGDRVTITCRASQTISTFLQWYQQKVGKAPKLLIYAASTLQSGVPSRFSGSGSGTDFSLTISSLQPEDFATYYCQQSYSAPLSFGGGTKVEIK | 1.19 fold over isotype control
3 | antibody 367 (antibody, V domains shown) VH: QVQLVQSGAEVKKPGASVKVSCKASGYTFTGYYIHWVRQAPGQGLEWMGWINPNSGGTIYAQKFQGRVTMTRDTSISTAYMELSRLTSDDTAVYSCAREPYYDILTGYYAPRRYFDYWGQGTLVTVSS VL: QSALTQPASVSGSPGQSITISCTGTSSDVGSYNYVSWYLQHPGKAPKLMIYDVSNRPSGVSNRFSGSKSGNTASLTISGLQAEDEADFYCSSYTSRSTYVFGTGTKVTVL | 1.08 fold over isotype control
4 | antibody 337 (antibody, V domains shown) VH: QVQLVESGGGVVQPGRSLRLSCAASGFTFSSYGMHWVRQAPGKGLEWVAIIWYDGSNKYYADSVKGRFTISRDNSKNTLYLQMNSLRAEDTAVYYCAKDTGGYCSGGSCYPESYFDYWGQGTLVTVSS VL: SYVLTQPPSVSVAPGKTARITCGGNNIGSKSVHWYQQKPGQAPVLVIYYDSDRPSGIPERFSGSNSGNTATLTINRVEAGDEADYYCQVWDGSSDHLYVFGTGTKVTVL | 439 fold over isotype control
5 | antibody 324 (antibody, V domains shown) VH: QVQLQESGPGLVKPSGTLSLTCAVSGGSISSSNWWSWVRQPPGKGLEWIGEIYHSGSTNYNPSLKSRVTISVDNSKNQFSLKLSSVTAADTAVYYCARESVAAAGISYYYYGMDVWGQGTTVTVSS VL: EIVLTQSPGTLSLSPGERATLSCRASQSVSGRYLAWYQQKPGQAPRLLIYGASSRATGIPDRFSGSGSGTDFTLTISRLEPEDFAVYYCQHYGSSPGTFGQGTRLEIK | 1.14 fold over isotype control
6 | antibody 328 (antibody, V domains shown) VH: QVQLQESGPGLVKPSGTLSLTCAVSGGSISSSNWWSWVRQPPGKGLEWIGEIYHSGSTNYNPSLKSRVTISVDNSKNQFSLKLSSVTAADTAVYYCARESVAAAGISYYYYGMDVWGQGTTVTVSS VL: DIQMTQSPSSLSASVGDRVTITCRASQGIRNDLGWYQQKPGKAPKRLIYAASSLQSGVPSRFSGSGSGTEFTLTVSGLQPEDFATYYCLQYNSSPLTFGGGTKVEIK | 1.22 fold over isotype control
7 | antibody 333 (antibody, V domains shown) VH: QVHLVESGGGVVLPGRSLRLSCSASQFIFSNYDMHWVRQSPGMGLEWVAGISSDGSDKYYIDSVRGRFTISRDNAKNTLFLQMNSLTTEDTAVYSCAKGGGKFGQYWGRGTLVTVSS VL: AIQMTQSPSSLSASVGDRVTITCRASQVIRNDLAWFQQKPGEAPNLLVYSASNLQSGVPSRFSGSGSGTDFTLTISSLQPEDFATYYCLQDYSYPYTFGQGTKLDMK | 1.21 fold over isotype control
8 | antibody 351 (antibody, V domains shown) VH: HVQLVESGGGVVQPGRSLRLSCAASGFISRNYGMEWVRQAPGQGLEWVAGIWYDGSKKYYADSVKGRFTISRDTSKNTLFLQMDSLRAEDTAVFYCATATKTFCGGDCPPGGMDVWGQGTTVTVST VL: SYVLTQPPSVSVAPGKTAWITCVGNNIESESVHWYQQRPGQAPVLVIYYDSDRPSGIPERFFGSNSGNTATLTISRVEAGDEADYYCQVWDSNSDLMVFGGGTKLTVL | 1.08 fold over isotype control
9 | antibody 363 (antibody, V domains shown) VH: EVQLLESGGGLVQPGGSLRLSCAASGFTFSTYAMSWVRQAPGKGLEWVSAISGSGGSTYYADSVKGRFTISRDNSKNTLYLQMNSLRAEDTAVYYCASGYSPDYWGQGTLVTVSS VL: not shown | 1.09 fold over isotype control
10 | antibody 340 (antibody, V domains shown) VH: QVQLVQSGAEVKKPGASVKVSCKASGYTFTSYDINWVRQATGQGLEWMGWMNPNSGNTGYAQKFQGRVTMTRNTSISTAYMELSSLRSEDTAVYYCARGRYCTGGVCWGDWYFDLWGRGTLVTVSS VL: QSVLTQPPSVSGAPGQRVTISCTGSSSNIGAGYDVHWYQQLPGTAPKFLIYGNSNRPSGVPDRFSGSKSGTSASLAITGLQAEDEADYYCQSYDSSLSGPVFGGGTKLTVL | 1.26 fold over isotype control
11 | antibody 329 (antibody, V domains shown) VH: EVQLVESGGGLVQPGGSLRLSCAASGFTFSSYWMHWVRQAPGKGLVWVSRINSDGSSTSYADSVKGRFTISRDNAKNTLYLQMNSLRAEDTAVYYCAREGIVATITLDYWGQGTLVTVSS VL: not shown | 2.46 fold over isotype control
12 | antibody 342 (antibody, V domains shown) VH: EVQLVQSGAEVKKPGATVKISCKVSGYTFTDYYMHWVQQAPGKGLEWMGLVDPEDGETIYAEKFQGRVTITADTSTDTAYMELSSLRSEDTAVYYCATGGVSVWFREFPASYSGSYLGYWGQGTLVTVSS VL: not shown | 1.16 fold over isotype control
13 | antibody 332 (antibody, V domains shown) VH: QVTLRESGPALVKPTQTLTLTCTFSGFSLSTSGMCVSWIRQPPGKALEWLALIDWDDDKYYSTSLKTRLTISKDTSKNQVVLTMTNMDPVDTATYYCARIHDDILTGYHYVDYWGQGTLVTVSS VL: not shown | 0.99 fold over isotype control
14 | antibody 323 (antibody, V domains shown) VH: QVQLVQSGAEVKKPGASVKVSCKVSGYTLTELSMHWVRQAPGKGLEWMGGFDPEDGETIYAQKFQGRVTMTEDTSTDTAYMELSSLRSEDTAVYYCATSTIFAPGGWFDPWGQGTLVTVSS VL: QSALTQPASVSGSPGQSITISCTGTSSDVGSYNLVSWYQQHPGKAPKLMIYEVSKRPSGVSNRFSGSKSGNTASLTISGLQAEDEADYYCCSYAGSTHYVFGTGTKVTVL | 1.29 fold over isotype control
15 | antibody 331 (antibody, V domains shown) V domain 1: QITLKESGPTLVKPTETLTLTCSFSGFSLTKTGEAAGWIRQAPGRALEWVTVIFWDDDKRYSPSLQNRISVTKDTSKNQVVLRMTNVARFDTGTYFCWAMGGPGKEYFGQGTLVAVSS V domain 2: QSVLTQPPSVSGAPGQRVTISCTGTSSSIGPYSDVHWYQHVSGKAPRLLIFGNSNRPSGVPDRFSGSKSGTSASLVIAGLQAEDEADYYCQSYDSSLGEIYVFGTGTTVTVL | 1.34 fold over isotype control
16 | antibody 368 (antibody, V domains shown) V domain 1: QITLKESGPTLVKPTETLTLTCAFSGFSLTKTGEAAGWIRQAPGRALEWVTVIFWDDDKRYSPSLQNRLTVTKDTSKNVVVLTMTNVDPVDTATYFCWAMGGPGKEFFGQGTRVAVSS V domain 2: QSVLTQPPSVSGAPGQRVTVSCTGTSSSIGPYSDVHWYQHIPGKAPRLLIFGTSNRPSGVPARFSGSKSGSSASLVIAGLQAEDEADYYCQSYDSSLGEIYVFGTGTTVTVL | 1.09 fold over isotype control
17 | antibody 339 (antibody, V domains shown) V domain 1: QITLKESGPTLVKPTETLTLTCSFSGFSLTRTGEAAGWIRQAPGRALEWVTVIFWDDDKRYSPSLQSRLTVTKDTSKNQVVLTMTNVARFDTATYFCWAMGGPGKEYFGQGTQVAVSS V domain 2: QSVLTQPPSVSGAPGQRVTISCTGTSSSIGPYSDVHWYQHVSGKAPRLLIFGNSNRPSGVPDRFSGSKSGTSASLVIAGLQAEDEADYYCQSYDSSLGEIYVFGTGTTVTVL | 1.27 fold over isotype control
18 | antibody 320 (antibody, V domains shown) VH: QVQLVQSGAEVKKPGASVKVSCKASGYTFTSYGISWVRQAPGQGLEWMGWISAYNGNTNYAQKLQGRVTMTTDTSTRTAYMELRSLRSDDTAVYYCARVGCYYDSSGYSCAENFQHWGQGTLVTVSS VL: QSVLTQPPSVSGAPGQRVTISCTGSSSNIGAGYDVHWYQQLPGTAPKLLIYGNSNRPSGVPDRFSGSKSGTSASLAITGLQAEDEADYYCQSYDSSLSALFGGGTKLTVL | 989 fold over isotype control
19 | antibody 348 (antibody, V domains shown) VH: QVQLVQSGSELKKPGASVKVSCKASGYTFTSYAMNWVRQAPGQGLEWMGWINTNTGNPTYAQGFTGRFVFSLDTSVSTAYLQISSLKAEDTAVYYCARDHELPNTSSWFGHFEYWGQGTLVTVSS VL: not shown | 1.16 fold over isotype control
20 | antibody 349 (antibody, V domains shown) VH: EVQLVQSGAEVKKPGATVKISCKVSGYTFTDYYMHWVQQAPGKGLEWMGLVDPEDGETIYAEKFQGRVTITADTSTDTAYMELSSLRSEDTAVYYCATENKVPTIIAAAGTRDYYYYGMDVWGQGTTVTVSS VL: not shown | 1.12 fold over isotype control
21 | antibody 366 (antibody, V domains shown) VH: QVQLVESGGGVVQPGRSLRLSCAASGFTFSSYAMHWVRQAPGKGLEWVAVISYDGSNKYYADSVKGRFTISRDNSKNTLYLQMNSLRAEDTAVYYCARGLVGYNWFDPWGQGTLVTVSS VL: DIQMTQSPSSVSASVGDRVTITCRASQGISSWLAWYQQKPGKAPKLLIYAASSLQSGVPSRFSGSGSGTDFTLTISSLQPEDFATYYCQQANSFTFGPGTKVDIK | 1.23 fold over isotype control
22 | antibody 345 (antibody, V domains shown) VH: QVQLQESGPGLVKPSQTLSLTCTVSGGSISSGDYYWSWIRQPPGKGLEWIGYIYYSGSTYYNPSLKSRVTISVDTSKNQFSLKLSSVTAADTAVYYCARVGMVDNWNFEGNWFDPWGQGTLVTVSS VL: QSALTQPRSVSGSPGQSVTISCTGTSSDVGGYNYVSWYQQHPGKAPKLMIYDVSKRPSGVPDRFSGSKSGNTASLTISGLQAEDEADYYCCSYAGSVVFGGGTKLTVL | 1.09 fold over isotype control

— patent publication US20220356229A1 (published 2022)
